Patent publication US20180155451A1 (published 2018)
Substitutions are numbered along the chain they refer to. Numbers in names are those of the source. Read-outs that look alike come from different tables or passages of the source. Each block holds one binder with its values, some of them ahead of it.

Key:
[1] = molecular target: T1, FcgRIIa R extracellular domain with C-terminal His tag (human, UniProt P12318 34-217); test: SPR (Biacore) KD ratio against the template H240-Kn061/H240-Hl071/L73-k0
T1 construct: extracellular domain; also called FcγRIIa R; FcγRIIa type R; not shown: His tag attached to the C terminus
T1 sequence (looked up): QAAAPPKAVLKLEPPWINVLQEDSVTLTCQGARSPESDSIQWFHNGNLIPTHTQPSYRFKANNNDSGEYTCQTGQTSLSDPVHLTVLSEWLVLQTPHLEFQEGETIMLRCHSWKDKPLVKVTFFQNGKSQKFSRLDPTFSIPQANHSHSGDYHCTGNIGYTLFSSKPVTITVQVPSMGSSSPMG
Procedure: (§1) The antibodies were assessed for the binding to each FcgR. […] The resultant value was defined as relative KD, and used as an assessment indicator.
(§2) Analysis of interaction between obj ective antibody and the FcγR was carried out using Biacore T100 (GE Healthcare), Biacore T200, Biacore A100, and Biacore 4000. HBS-EP+ (GE Healthcare) was used as the running buffer, and the measurement temperature was set to 25° C. Chips produced by immobilizing the antigen peptide by the amine coupling method to a Series S sensor Chip CM5 (GE Healthcare), chips produced by allowing preliminarily biotinylated antigen peptides to interact with and immobilize onto a Series S Sensor Chip SA (certified) (GE Healthcare), chips produced by immobilizing Protein L (ACTIGEN, BioVision) to Series S Sencor Chip CM5 (GE Healthcare), or chips produced by immobilizing Protein A/G (Thermo Scientific) to Series S Sencor Chip CM5 (GE Healthcare) were used. Antibodies of interest were captured onto these chips, and allowed to interact to each FcγR diluted with running buffer.

[2] = molecular target: T2, FcgRIIa H extracellular domain with C-terminal His tag (human, UniProt P12318 34-217); test: as above
T2 construct: extracellular domain; also called FcγRIIa H; FcγRIIa type H; not shown: His tag attached to the C terminus
T2 sequence (looked up): T1 sequence (looked up) with R134H
Procedure: as §1, §2

[3] = molecular target: T3, FcgRIIb extracellular domain with C-terminal His tag (human, UniProt P31994 43-217); test: as above
T3 construct: extracellular domain; also called FcγRIIb; not shown: His tag attached to the C terminus
T3 sequence (looked up): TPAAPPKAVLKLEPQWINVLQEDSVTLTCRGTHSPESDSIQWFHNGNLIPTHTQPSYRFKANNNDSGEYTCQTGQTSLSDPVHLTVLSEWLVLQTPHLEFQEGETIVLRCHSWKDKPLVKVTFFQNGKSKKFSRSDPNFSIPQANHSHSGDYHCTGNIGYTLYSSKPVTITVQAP
Procedure: as §1, §2

[4] = molecular target: T4, FcgRIIIa F extracellular domain with C-terminal His tag (human, UniProt P08637 17-208); test: as above
T4 construct: extracellular domain; also called FcγRIIIa F; FcγRIIIa (F158); not shown: His tag attached to the C terminus
Procedure: as §1, §2

[5] = molecular target: T5, FcgRIIIa V extracellular domain with C-terminal His tag (human, UniProt P08637 17-208); test: as above
T5 construct: extracellular domain; also called FcγRIIIa V; FcγRIIIa (V158); not shown: His tag attached to the C terminus
Procedure: as §1, §2

FcgRIIa R [6] = molecular target: T6, FcgRIIa R (human, UniProt P12318 34-217); test: SPR (Biacore), antibody captured on chip, FcgR extracellular domain as analyte
T6 construct: extracellular domain; also called FcγRIIa R; FcγRIIa type R; not shown: His tag attached to the C terminus
T6 sequence (looked up): T1 sequence (looked up)
Procedure: as §2, with “buffer. To regenerate and repeatedly use the chip, the antibodies captured onto the chip were washed off by reacting 10 mM glycine-HCl, pH 1.5.” for “buffer.”

FcgRIIa H [7] = molecular target: T7, FcgRIIa H (human, UniProt P12318 34-217); test: as above
T7 construct: extracellular domain; also called FcγRIIa H; FcγRIIa type H; not shown: His tag attached to the C terminus
T7 sequence (looked up): T1 sequence (looked up) with R134H
Procedure: as §2, with “buffer. To regenerate and repeatedly use the chip, the antibodies captured onto the chip were washed off by reacting 10 mM glycine-HCl, pH 1.5.” for “buffer.”

FcgRIIIa F [8] = molecular target: T8, FcgRIIIa F (human, UniProt P08637 17-208); test: as above
T8 construct: extracellular domain; also called FcγRIIIa F; not shown: His tag attached to the C terminus
Procedure: as §2, with “buffer. To regenerate and repeatedly use the chip, the antibodies captured onto the chip were washed off by reacting 10 mM glycine-HCl, pH 1.5.” for “buffer.”

FcgRIIIa V [9] = molecular target: T9, FcgRIIIa V (human, UniProt P08637 17-208); test: as above
T9 construct: extracellular domain; also called FcγRIIIa V; not shown: His tag attached to the C terminus
Procedure: as §2, with “buffer. To regenerate and repeatedly use the chip, the antibodies captured onto the chip were washed off by reacting 10 mM glycine-HCl, pH 1.5.” for “buffer.”

FcgRIa = molecular target: T10, FcgRIa (human, UniProt P12314 16-292); test: as above
T10 construct: extracellular domain; Expressed in FreeStyle293 cells and purified; used as analyte in Biacore; also called FcγRIa; FcγRI; not shown: His tag attached to the C terminus
Procedure: (§3) Specifically, H240-Kn120 (SEQ ID NO: 99) resulting from introduction of S239M into H240-Kn067 and H240-Kn126 (SEQ ID NO: 100) resulting from introduction of Y235Q into H240-Kn120 were prepared according to the method described in Reference Example 1. […] Those described above were assayed for the binding to each FcgR according to the method described in Reference Example 8.
as §2, with “buffer. To regenerate and repeatedly use the chip, the antibodies captured onto the chip were washed off by reacting 10 mM glycine-HCl, pH 1.5.” for “buffer.”

FcgRIIa R [10] = molecular target: T6, FcgRIIa R; test: as above; remark: listed apart in the source
Procedure: as §3
as §2, with “buffer. To regenerate and repeatedly use the chip, the antibodies captured onto the chip were washed off by reacting 10 mM glycine-HCl, pH 1.5.” for “buffer.”

FcgRIIa H [11] = molecular target: T7, FcgRIIa H; test: as above; remark: listed apart in the source
Procedure: as §3
as §2, with “buffer. To regenerate and repeatedly use the chip, the antibodies captured onto the chip were washed off by reacting 10 mM glycine-HCl, pH 1.5.” for “buffer.”

FcgRIIb = molecular target: T11, FcgRIIb (human, UniProt P31994 43-217); test: as above
T11 construct: extracellular domain; Expressed in FreeStyle293 cells and purified; used as analyte in Biacore; also called FcγRIIb; CD32B; not shown: His tag attached to the C terminus
T11 sequence (looked up): T3 sequence (looked up)
Procedure: as §3
as §2, with “buffer. To regenerate and repeatedly use the chip, the antibodies captured onto the chip were washed off by reacting 10 mM glycine-HCl, pH 1.5.” for “buffer.”

FcgRIIIa F [12] = molecular target: T8, FcgRIIIa F; test: as above; remark: listed apart in the source
Procedure: as §3
as §2, with “buffer. To regenerate and repeatedly use the chip, the antibodies captured onto the chip were washed off by reacting 10 mM glycine-HCl, pH 1.5.” for “buffer.”

FcgRIIIa V [13] = molecular target: T9, FcgRIIIa V; test: as above; remark: listed apart in the source
Procedure: as §3
as §2, with “buffer. To regenerate and repeatedly use the chip, the antibodies captured onto the chip were washed off by reacting 10 mM glycine-HCl, pH 1.5.” for “buffer.”

T9 sequence (P08637 17-208 F176V limits assumed): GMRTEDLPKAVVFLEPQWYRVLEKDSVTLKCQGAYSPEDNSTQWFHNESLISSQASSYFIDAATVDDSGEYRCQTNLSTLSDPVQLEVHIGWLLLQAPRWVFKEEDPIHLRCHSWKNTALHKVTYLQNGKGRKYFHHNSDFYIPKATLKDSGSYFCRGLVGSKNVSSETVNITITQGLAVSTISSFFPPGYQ
T8 sequence (P08637 17-208): as the sequence (P08637 17-208 F176V limits assumed) above, with V160F counted along it
T5 sequence (P08637 17-208 F176V): as the sequence (P08637 17-208 F176V limits assumed) above
T10 sequence (P12314 16-292): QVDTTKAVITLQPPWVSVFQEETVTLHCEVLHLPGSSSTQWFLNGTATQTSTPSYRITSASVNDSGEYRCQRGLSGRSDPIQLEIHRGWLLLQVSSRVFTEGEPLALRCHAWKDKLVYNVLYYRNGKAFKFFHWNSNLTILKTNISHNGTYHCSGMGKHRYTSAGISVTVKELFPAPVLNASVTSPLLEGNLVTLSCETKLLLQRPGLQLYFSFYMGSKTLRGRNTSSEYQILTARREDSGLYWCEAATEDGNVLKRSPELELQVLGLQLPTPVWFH
T4 sequence (P08637 17-208): as the sequence (P08637 17-208 F176V limits assumed) above, with V160F counted along it

relative KD (KD of H240-Kn061/H240-Hl071/L73-k0 / KD of variant) [1]: 1
relative KD (KD of H240-Kn061/H240-Hl071/L73-k0 / KD of variant) [2]: 0.7
relative KD (KD of H240-Kn061/H240-Hl071/L73-k0 / KD of variant) [3]: 0.7
relative KD (KD of H240-Kn061/H240-Hl071/L73-k0 / KD of variant) [4]: 1.3
relative KD (KD of H240-Kn061/H240-Hl071/L73-k0 / KD of variant) [5]: 2
B1: H240-Kn061/H240-Hl071/L73-k0 variant with Y235N introduced into H240-Kn061 (antibody, human IgG1, kappa)
heavy 1: QDQLVQSGAEVKKPGASVKVSCKASGFNIKDTYIQWVRQAPGQGLEWMGRIDPLRKQTKYREKFEGRVTITADTSTNTAYMELSSLRSEDTAVYYCVRSGREFDYWGQGTLVTVSSASTKGPSVFPLAPSSKSTSGGTAALGCLVKDYFPEPVTVSWNSGALTSGVHTFPAVLQSSGLYSLSSVVTVPSSSLGTQTYICNVNHKPSNTKVDKKVEPKSCDKTHTCPPCPAPEYNWGPSVFLFPPKPKDTLMISRTPEVTCVVVDVSDEDPEVKFNWYVDGVEVHNAKTKPREEQYNATYRVVSVLTVLHQDWLNGKEYKCKVSNKALPAPIEKTISKAKGQPREPQVCTLPPSRDELTKNQVSLWCLVKGFYPSDIAVEWESNGQPENNYKTTPPVLDSDGSFFLYSKLTVDKSRWQQGNVFSCSVMHEALHNHYTQKSLSLSP
heavy 2: QDQLVQSGAEVKKPGASVKVSCKASGFNIKDTYIQWVRQAPGQGLEWMGRIDPLRKQTKYREKFEGRVTITADTSTNTAYMELSSLRSEDTAVYYCVRSGREFDYWGQGTLVTVSSASTKGPSVFPLAPSSKSTSGGTAALGCLVKDYFPEPVTVSWNSGALTSGVHTFPAVLQSSGLYSLSSVVTVPSSSLGTQTYICNVNHKPSNTKVDKKVEPKSCDKTHTCPPCPAPELLGGPSVFLFPPKPKDTLMISRTPEVTCVVVDVSHEDPEVKFNWYVDGVEVHNAKTKPREEQYNSTYRVVSVLTVLHQDWLNGKEYKCKVSNDALPMPIEETISKAKGQPREPQVYTLPPSRCELTKNQVSLSCAVKGFYPSDIAVEWESNGQPENNYKTTPPVLDSDGSFFLVSKLTVDKSRWQQGNVFSCSVMHEALHNHYTQKSLSLSP
light: DIQMTQSPSSLSASVGDRVTITCRASQDIHKYIAWYQQKPGQAPRLLIQYTSTLQPGVPSRFSGSGSGTDYTFTISSLQPEDIATYYCLQYEQLRTFGGGTKVEIKRTVAAPSVFIFPPSDEQLKSGTASVVCLLNNFYPREAKVQWKVDNALQSGNSQESVTEQDSKDSTYSLSSTLTLSKADYEKHKVYACEVTHQGLSSPVTKSFNRGEC
notes: Point variant made with H240-Kn061/H240-Hl071/L73-k0 as template; position by EU numbering; also called H240-Kn061 Y235N

relative KD (KD of H240-Kn061/H240-Hl071/L73-k0 / KD of variant) [1]: 1.4
relative KD (KD of H240-Kn061/H240-Hl071/L73-k0 / KD of variant) [2]: 0.7
relative KD (KD of H240-Kn061/H240-Hl071/L73-k0 / KD of variant) [3]: 0.5
relative KD (KD of H240-Kn061/H240-Hl071/L73-k0 / KD of variant) [4]: 1.9
relative KD (KD of H240-Kn061/H240-Hl071/L73-k0 / KD of variant) [5]: 1.6
B2: H240-Kn061/H240-Hl071/L73-k0 variant with Y234E introduced into H240-Kn061 (antibody, human IgG1, kappa)
heavy 1: B1 heavy 1 with Y233E, N234Y
heavy 2: B1 heavy 2
light: B1 light
notes: Point variant made with H240-Kn061/H240-Hl071/L73-k0 as template; position by EU numbering; also called H240-Kn061 Y234E

Kd (FcgRIIa R [6]): 49 nM
Kd (FcgRIIa H [7]): 94 nM
Kd (FcgRIIIa F [8]): 7.1 nM
Kd (FcgRIIIa V [9]): 1.6 nM
Kd (FcgRIa): 0.26 nM
Kd (FcgRIIa R [10]): 49 nM
Kd (FcgRIIa H [11]): 94 nM
Kd (FcgRIIb): 370 nM
Kd (FcgRIIIa F [12]): 7.1 nM
Kd (FcgRIIIa V [13]): 1.6 nM
B3: H240-Kn067/H240-Hl068/L73-k0 (antibody, human IgG1, kappa)
heavy 1: B1 heavy 1 with N234Y, A326D
heavy 2: B1 heavy 2 with D269E, M329K
light: B1 light
notes: Heterodimerized anti-EREG IgG1: L234Y/L235Y/G236W/H268D/S298A/A327D in Kn067, D270E/K326D/A330K/K334E in Hl068; also called H240-Kn067/H240-HI068/L73-k0

Kd (FcgRIa): 0.37 nM
Kd (FcgRIIa R [10]): 17 nM
Kd (FcgRIIa H [11]): 59 nM
Kd (FcgRIIb): 150 nM
Kd (FcgRIIIa F [12]): 2.4 nM
Kd (FcgRIIIa V [13]): 0.66 nM
B4: H240-Kn120/H240-Hl068/L73-k0 (antibody, human IgG1, kappa)
heavy 1: B1 heavy 1 with N234Y, S238M, A326D
heavy 2: B1 heavy 2 with D269E, M329K
light: B1 light
notes: Heterodimerized anti-EREG IgG1: Kn120 is H240-Kn067 with S239M
